In the domain aggregation screens of Martell et al. (2025):

Assay: soluble fraction after stress (log2 fold change); higher = more stays soluble; pooled small domains, quantitative proteomics
Settings: stress: 50 degC
Procedure, shortened: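 Custom libraries of small protein domains were pooled and measured in a high-throughput format, with quantitative proteomics as the read-out. Each library was stressed at 50°C. The value is the log2 fold change in the amount of each protein that stays soluble after stress, used as a measure of aggregation propensity; higher values mean more of the protein stays soluble.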

Sequence | soluble fraction (log2)
HMDIMNNILINRIKKILTEQNMSKADLSRLTGISNSSLSEYLNGKYEPKQDKIALIAKALHVSPAWLMGF | -0.915
HMQSTEQVSVTVTIPPGGELRIDSDTFRVLLNGENVLDKQSGDWLMLSRDLLYLDIESAIGNGLSGNLIYT | 0.0974
HMRAGEAVTGQVIGVKEDEIILSIAGSKSEGIITRSEFTNEPNVDLTTKVSVGDELEVKVLKVNDGEGMAS | -0.171
HMSKASLFFLFNHKDELYIVDNNHVQDVPKPRELIRRFSTIEQIREHALHLGLPIANDTARE | -0.723
HMTPLILTAQEGGERLDAFVASQVEDLTRSAAQRLLEQGAVTSGGKPLKKNAKTTPGMVVEVLLPDPQ | 0.251
HMKKLPEKFDYNEISGLRIEAQQKLNEFQPLNIGQASRISGVTPADISVLLVYLEQLKYSNPDLFFKLNPD | -0.798
HMSPTSSRAAQARIRKMIESESPLKPISDSQLAARLGEEGISIARRTVAKYREQMNILPASQRRGV | -0.146
HMINEDMTQSDRMELWGRLIDVVEDWLAEKGITEEDIPNEEREGVEDAAIIFGDDYDYLADRFSEVIGISR | -1.18
HMSDNHYLLEIFLADLKSDEKFIRELAIFQLHHHIESDKVRAELKAAAETESDPYLKGMIESLLSSTS | -0.943
HMGPGFVGGSVLSGGNRGEGDPVANAQVFITDMDDNVVAFTKTDAEGNFDMTNLAYGDYKMYVDILNK | -0.0166
HMERFMEFVITDTQQGQRLDVVLTETTEHLGSRSHMQRSIRAGLVSIDGITTTRASTKVSSGQIIRVEPT | -1.49
HMGYSSKISELLTKYNMNASELAQKVGVPPTTIYSIIKRDSKKADIEVLIKIAKLFNVPVEYF | -0.99
HMSVTVMVLRAAGDIQAGTEITDKHLATVEVGEYGLPEGIINDKDSILGKIALTDIAKGDYFFSQKLG | -0.134
HMEETAFEKLSPLQKLRALGKPLTMINMRDGSQIAGSVQRSDDKFLYLDTGDGIAKLPVEEILRRTPM | 0.25
HMGTSMDPPVIIVSDGKLIQKGLEVSGLKKQWLYDLIDRKHMKISDIFLLTADKTGKYNLIKRS | 0.0904
HMNDPIGDMLTRIRNAQMRGKSTVSTPASKLRAWVLEVLASEGYIRGFERATTDNGQGELVISLD | -0.665
HMESSREVSFSEFMKQIDSGRVSSVKLDGETIYVRNSDGTSYKVIQPLGTDLIGVLRKSDIDVQAIKQ | -0.003
HMQNEIQQLAIDLIARAHKSGASDIHIVDTGTYTRIKFRVLGLLREDSQMEAETGRQMISTIYGILG | -0.135
HMSSGNLESLLNKLHNEDYFVRLDAVKALGALGDPGAIDYLIEMLSENGIMRGWVANSLAALGEAQWKKII | -1.94
HMEEKNNIIVSYIEDKISELEKASMYVPNENKEKLIMAFKNRNEDIDVIKTRIDTIFNNSVAAYKENME | 0.21
HMKVSDPEAIKLIEQAQVKVIPFLDISEAADIQIALEELKNSEGTGQTDSAKVRLRNLLSPFSYL | 0.269
HMHAPLEVGSVVRIEGQKALGTILSISDREAIVALGALKTTIPLKRLHGVSPAEAQRHLRKTTPAQAVR | 0.0521
HMTSHSFVITEEVGQRLDRFISDQLDTVSRTMIQKHIRSGAVVVNGKQVKSNYLLVLNDRINIALK | -2.64
HMITVEAPMPGKVLSVNVKAGDKVEAGDVLLILEAMKMQNEIMAPEDGTVSDVRVSAGDTVATGDVMVV | 0.0409
HMEGRHFRILYILLNNERVTAPELAEEFGVSVRTIYRDIDTMSAAGIPIYMQGGRKGGIYLLEGY | -1.16

Sequence | soluble fraction (log2)
HMPSREDFAYDSIKEAILSGELLPNQKISLSDLANKLGISIIPVNSAVGRLVAEGLVRQDPHHSPYVV | 0.345
HMDLAENWKDDADITLAEYNAIRSRYKPGKLHRDTEFMIARDMLIRPETVLAIAHSRFSNVHTHPV | -0.945
HMSRSKLNRLDKIKKMLIAQTGISIKEFSASLNVSEITIRRDLNLLEEQGFIRLVNGVAIYRM | -1.55
HMLQNLGFKPDLEIRHFPGIVLPDIHRSKKTISLLYTLLAGDIKKLPENEINYKDSKIISSYLWTLLRYH | 0.0237
HMDVKQSAAGVAGRIRFELNRTLTGQGHEKFTSASQAIGPRPAAELARRLFNSGSVVGVHVFANIVTVDLL | -0.051
HMQPEKELAPLIGQRVSVRLHDGDGGYRDLLGELESPDSIRKKNGEIAFFDPAKIAALRVVV | 0.0899
HMGIDRPLFTLAQFARQIGEQVKISLSLPQDGRRRLQGKVLSVGESGIVLDVDGREFTVAIGNVDKARL | -1.24
HMNVLGQTAIVRSLRLDATFGEVLLADGGAGLIFKARTHGDETFKKGDRVVLLEYLKDQHAYRVISETDFL | -1.94
HMERPYNGKQMEYHEGGVEKKETLFVEGGLSRVIQWDESGQKRSEVNISPTGVRREQYWDSSGKAIAKPS | 0.228
HMKEPFETMPDVMDAKQIAEALQISKAGAYNLLNSPDFPTLRIGGRKLVMKNELVEWLKSHTNRK | 0.274
HMIEDMQQWIRQIREIVSNRLDLTRNISDDEIREVISDIVMEQSRQQYMSLNEKKTLMEGVFNSMR | -0.157
HMTKYREVLRMSAGGFSQRVIASTLSISRNTVASTLKRAREQNLDWEAVEQQRLSEKDIANLLFP | -0.996
HMGDGRVGVITASIAYEYAKEVFPEGTSFLKLGLTFPLPMDLIRDFASKVEKLYVIEELEPL | -0.215
HMKRYLFEEVLAFLKHNDGKSFNYKQLGAAMEIDNESDRFALLETLEELKHQGFVIETDIGKYAAKE | -0.324
HMLEIGRYNTLTVLRKVDFGYYLDGLDYGDILMPAKYAATELEAGDEVDVFIYLDSSEKLIATTETPIAQ | -3.38
HMDRDPAEAGYDDGYLSGNTDGMNNDERATYDESSQYPTPDERQSYAAAYRRGYAAGFADGRKQAV | 0.134
HMLSVNREQVEQSLKQEWGFDYDKNLRAAQRAIDVYGDDDLKLLLNGPTGNDPAIVKLFARLGGEVTEE | -0.00909
HMNVNSMIGKEGRVIEDIDNFNETGRIIVDGMEWTARAVNEQSITSGQKVVIREIQGVKAMVVPM | 0.187
HMNNTIKFSVDTTNSGKRLDIFLAENIKQFTRSYLKKIISNNQVKLNNLVANSPSIKVKHSDLILINILE | -1.82
HMDLRYKVQYNFIDQGMMTKDELLKFSLNQDDVSKIAVFDNDSKQWKEIYAITEISEKLGIS | -0.0611
HMHGESIPIPNILHKRYADAEQIVNNLRLEIEVTDTGYVRSLPPGAILEQTPGPGERVKSGHIIYVTINAA | -0.291
HMVVYQRVHDEILQALKDNVYPVGTLLPPEPELERIYSVSRTTVRRAIAKLSEEGYVQVRQGYGTMVLKN | -0.576
HMIPDLPAIGENLYRERKRQQLSMAELAAASGISKAMLSQIEADKVNPTIATLWKIAHALHVDLESLISGG | -0.578
HMKNVENIILEQLKKNIYDDLNNASFEEIILIDAEKSIYKGTIKANYIEYNFKINLSTGEILKWKLK | -0.117
HMSSLQFVTLTLMEGHAWVGREIQELLMPPQMRIALIRRGDSQVIPKGSTILESADELILSAIEYQG | -4.14

Sequence | soluble fraction (log2)
HMRITEGEIVEIQEGDNRALVGVGEKLEGIISLDEIRGADGKLLFNVGDKITVMVMGHYNERPK | 0.15
HMKGAADPAIKQKVLDYLDTVEKAKSKEIAKAISEEKSAVDLAVKELAFEDKVEYLYITTTFVALKGKVA | -0.168
HMGSAIAHAIASLPDRYRELLLLKYDTGYSEKEIAQLLGMTEANVKKTIQRAKAKLQTLLDEMEA | -0.81
HMEAPPHEALSNREFQVLQLLSQGRSVTQIAHQLTLSANTISTYRARIFDKLGLHNPADLYAYAARHGLM | -0.676
HMTMVKYRYLTDGELKEFEEEFKHFLIANGLHSEEWERLNNEDSNKAIEVVALFSNLILDKV | -1.54
HMTIFGWQQDETGKWYRNADGTFYENGWKEIDGAQYYFDENGYVTTGWLELDGKDYYFDEEGKYDSTKVR | -0.46
HMEMSLGEKLKQARLTKNFSQEYMAEVLQISQKTYSNFENNKTKPDFSQIEEISKVLETSILEFLT | -0.152
HMGKLQFREKLNGILELGKEKHRVLTMEDVEKYFEEDALSEEQMELVYDYLLSQKIAVTGYVKK | -0.191
HMSQDLVVLGDSMLNNALKAFHIDPNAIKKKYWDKLILDYHLKSKEEVLTEIALGKKINVMVAHQLTSIMD | -0.0721
HMNPAIYIRKNILNLTQEKLSEYLDVTQPTIHRWEESGVIPAKHQRQIREFASEKGIYWNDSWFFSIPDE | -0.953
HMSYANVEWRDFLNSLDEKYRIVVILYYVQGFKTREIAEILQINQSTVRGRLAKAREKLEQQYN | -1.46
HMNEAMIMIDLKGKSRDEAVKELDELNLKYRFTGNGIVKDQKPKAGEEINSDTVVEVELSEIK | 0.114
HMIVIMAKESSPAELEGVKNRIESHPGLRPQVFDGVERIVVGVLGSIPPDLKDEIELLPGVIEVVPISK | -0.0582
HMPPFTYHLERAKRKTVGFIVDERGVTVRAPRWVSVSEIEKMLQTKEAWIQKKLTEFHNWQKE | -3.11
HMAPNDELTRQVISVLSGTPQQAFNYKQISKKLNINDSSERRMVSNILRELAGKGEIVEVYQGKYRSKAPA | 0.0588
HMDKDTFGEFENVKLTEEEYNKLVEKLGENNTKLMIEELSTGIASKGYKYKSHYATILSWSRRRVTKLQER | 0.0444
HMLINLGPRIRKERRSKGISQSDFSKNLGISASYLNLLENGRRTLTVPLLIKIGNELNLSLKDL | -0.0339
HMQPGDRVDALIVGVSGEHVFLDVGGKSEGVMAAAELRNEAGELSAAEGDRVQVYLLSNRNGELIFTA | 0.00616
HMYKLTTQRRAILDVIIENHDKHLNPEEIYDIVKEKYPEIGIATVYRTLQLLEKLNIIYRLNFDDGYNRYE | -2.3
HMTMVLPDAARDKLKAIGLSIEHVEPSPVKDIFTVISREGVSYVSKDGDYIFTGSLFHVKGKDVVNTTEQA | 0.128
HMEQAMIVILKENPDRRQLEFLTGWLQKQQIGIHISEGAHQTVLGLVGDATRLDIDMLKQMEIVEDVKRVQ | -0.0829
HMGLDERNLKLFAASLLEQAGKKITESTMTYLLDKTGSDMENIQNEVEKIIGYTMNHTVVTTEDIDAV | -0.271
HMSDVLPEAILERRLVKKGNRAVPQVLIKWTKLPATSATWEDFYVLQQRFPTALAWGQAPSPGGQM | -0.221
HMVNIPEIAKKFGKSTSEVFEQIQIGEKHEMEHTNDPKKARKIALDHLSDDMDYYKKLKKLG | 0.27
HMFRPDYYEILQVDRHASPEVITAAYRQLLSIYNSEQDGNKQMIKLIQEAYGVLGDSQDRWLYDSWLDNN | -0.746
